Test results from patent US20200040103A1.

What was measured:
[1] = biological target: recombinant human KLK5 (human) (UniProt Q9Y337); test: pro-KLK7 LC/MS assay, 5 nM KLK5
[2] = biological target: recombinant human KLK5 (human) (UniProt Q9Y337); test: pro-KLK7 coupled assay, 5 nM KLK5
[3] = biological target: recombinant human KLK5 (human) (UniProt Q9Y337); test: pro-KLK1 LC/MS assay, 0.5 nM KLK5
[4] = biological target: recombinant human KLK5 (human) (UniProt Q9Y337); test: Kiapp assay curve, 0.125 nM KLK5, Z-VPR-pNA
[5] = biological target: recombinant human KLK5 (human) (UniProt Q9Y337); test: Kiapp assay curve, 0.250 nM KLK5, Z-VPR-pNA
[6] = biological target: recombinant human KLK5 (human) (UniProt Q9Y337); test: Kiapp assay curve, 0.500 nM KLK5, Z-VPR-pNA
[7] = biological target: recombinant human KLK5 (human) (UniProt Q9Y337); test: pro-KLK1 coupled assay, 0.5 nM KLK5
[8] = biological target: recombinant human KLK5 (human) (UniProt Q9Y337); test: Kiapp, KLK5 0.5-0.0625 nM, Z-VPR-pNA
[9] = biological target: recombinant human KLK5 (human) (UniProt Q9Y337); test: KLK5 direct activity assay, 5 nM KLK5, Boc-VPR-AMC
[10] = biological target: recombinant human KLK5 (human) (UniProt Q9Y337); test: direct activity assay, 5 nM KLK5, Boc-VPR-AMC
[11] = biological target: recombinant human KLK5 (human) (UniProt Q9Y337); test: pro-KLK1 coupled assay, 0.5 nM KLK5, 31.25 nM pro-KLK1, PFR-AMC
[12] = biological target: recombinant human KLK5 (human) (UniProt Q9Y337); test: SPR BIAcore T200, antibody captured by anti-human Fc, human KLK5 as analyte, 37 C
[13] = biological target: recombinant human KLK5 (human) (UniProt Q9Y337); test: Kiapp as the y-intercept of the line of IC50 (nM) versus KLK5 (nM), Z-VPR-pNA
[14] = biological target: recombinant human KLK5 (human) (UniProt Q9Y337); test: pro-KLK7 LC/MS assay, 5 nM KLK5, 15 nM pro-KLK7; box prints neither IC50 nor a unit, IC50 in nM per text
[15] = biological target: recombinant human KLK5 (human) (UniProt Q9Y337); test: pro-KLK1 LC/MS assay, 0.5 nM KLK5, 300 nM pro-KLK1; single value in the box; unit inferred, nM

Sequence of recombinant human KLK5 (human) (Q9Y337 67-293): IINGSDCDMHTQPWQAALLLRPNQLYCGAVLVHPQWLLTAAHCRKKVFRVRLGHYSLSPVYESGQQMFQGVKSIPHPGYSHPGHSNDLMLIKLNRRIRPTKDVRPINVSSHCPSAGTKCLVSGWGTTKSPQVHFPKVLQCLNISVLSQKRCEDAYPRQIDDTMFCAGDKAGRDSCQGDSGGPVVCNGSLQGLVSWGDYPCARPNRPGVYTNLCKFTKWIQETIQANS

B1: 3-3F5 (antibody, V domains shown)
VH: QSVKESEGGLFKPTDTLTLTCTVSGFSLNDYGVSWVRQAPGNGLEWIGAIGSSGVAWYANWAKGRSTITRNTNLNTVTLKMASLTAADTATYFCARDRDYGYRADDATSGMDLWGPGTLVTVSS
VL: AYDMTQTPASVEAAVGGTVTIKCQASESIGNALAWYQQKPGQPPKLLIYDASDLASGVPSRFKGSGSGTQFTLTISGVECADAATYYCQQGDSHNNVDNIFGGGTEVVVK
IC50 [1]: 1440 pM
IC50 [2]: 1530 pM
IC50 [3]: 150 pM
IC50 (read off the curve) [4]: 40 pM
IC50 (read off the curve) [5]: 70 pM
IC50 (read off the curve) [6]: 100 pM
IC50 [7]: 140 pM
Ki [8]: < 10 pM
IC50 (read off the curve) [9]: 1000 to 2000 pM
IC50 [10]: 1320 pM
IC50 (read off the curve) [11]: 100 to 200 pM
Kd [12]: < 1 pM
koff [12]: < 1e-05 s⁻¹
kon [12]: 2.93e+07 M⁻¹ s⁻¹
Ki [13]: 8.1 pM
IC50 [14]: 1440 pM
IC50 [15]: 152 pM
